Data: the supplement of paper PMC9170038

System: MS2 coat protein
Experiment: apparent KD of MS2 coat protein; designed switch direction (-1 OFF switch, 1 ON switch): -1; higher = weaker reporter binding
Method in brief: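 Designed RNA switches sharing common flanks were transcribed on Illumina chips by stalled E. coli RNA polymerase. They were titrated with SNAP-549-labelled MS2 coat protein, from 0.7 or 1.5 nM doubling to 3 µM, in Tris-HCl pH 7.5 buffer with KCl, MgCl2, BSA, DTT, tRNA and Tween-20. Titrations ran without input, with 200 uM small-molecule ligand, or with an oligonucleotide input. The apparent KD of each design is the median over its clusters, after curve-fitting of normalised cluster fluorescence.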

[1] = input ligand: microRNA oligo, concentration not stated
[2] = Eterna round: R95, input ligand: FMN 200 uM
[3] = Eterna round: R95, input ligand: microRNA oligo, concentration not stated
[4] = Eterna round: R95, input ligand: none

CCGAACAUAGGAUAUACAUGAGGAUCACCCAUGUAUAUAAAAGGGUGUUCCAACUAAAGUAGAAGGAUGUAAGG [ExFusion 1 - Jieux - Exclusion 3] (Eterna round: R97, puzzle: Exclusion 3)
apparent KD of MS2 coat protein (input ligand: FMN 200 uM): 36.5 nM
apparent KD of MS2 coat protein (input ligand: none): 40.6 nM

UGAUUCCUAGGAUAUGCUGGAUAUGAGGUCCCGAGUUGCCGACAUGAGGAUCACCCAUGUAGAAGGAGGUGUCG [Eternabot (L1) Solution 66] (Eterna round: R97, puzzle: Exclusion 2)
apparent KD of MS2 coat protein (input ligand: FMN 200 uM): 199 nM
apparent KD of MS2 coat protein (input ligand: none): 105 nM

UAUUAGUAAGGAUAUGAGCCGUAGGACGAAAGUCCUACGGCUCAGAAGGUACAUGAGGAUCACCCAUGUUUAUU [Mod of Fisker 6 - Jieux - Exclusion 4] (Eterna round: R97, puzzle: Exclusion 4)
apparent KD of MS2 coat protein (input ligand: FMN 200 uM): 22.5 nM
apparent KD of MS2 coat protein (input ligand: none): 15.9 nM

UUAAUUAAUUUAAUAUAAGAUCACAUGAGGAUCACCCAUGUAUAGGAUAUCAGCUCGUUUAGAGCUGAGAAGGAUACAUAAUAU [ExNG3/2-B2] (Eterna round: R96, puzzle: Exclusion NG 3)
apparent KD of MS2 coat protein (input ligand: FMN 200 uM): 292 nM
apparent KD of MS2 coat protein [1]: 328 nM
apparent KD of MS2 coat protein (input ligand: none): 230 nM

GGAAGACAUGAGGAUCACCCAUGUAAGGAUAUCGAAGGUAUGAGAGGAAAGAGGUUAACGAGAAGGUACAGGUG [JR_Exclu1_Sub099] (puzzle: Exclusion 1)
apparent KD of MS2 coat protein [2]: 107 nM
apparent KD of MS2 coat protein [3]: 82 nM
apparent KD of MS2 coat protein [4]: 102 nM

AAGAAACAUGAGGAUCACCCAUGUGAGGAUAUGACCAAGAAAAGAAAAGAAAGAAGAAUCAGAAGGCACAAAGG [salish99-ex1_r3_051] (puzzle: Exclusion 1)
apparent KD of MS2 coat protein [2]: 47.7 nM
apparent KD of MS2 coat protein [3]: 47.2 nM
apparent KD of MS2 coat protein [4]: 70.2 nM

AGUACUAUCACGAAAGUGAUAGUACAAAUAGCAAGUGAAACAUGAGGAUCACCCAUGUCCUCAUUUGCUCGUCUUAA [Mat - Sensor v2 -ver2- JL mod - D66] (Eterna round: R96, puzzle: Sensor v2, turn-off variant 2)
apparent KD of MS2 coat protein (input ligand: FMN 200 uM): 12.6 nM
apparent KD of MS2 coat protein [1]: 320 nM
apparent KD of MS2 coat protein (input ligand: none): 14.3 nM

GAGAUGUGAGGAUAUCUAGACCGCGGAAGAGCCGCAGUCCGAGAGAAGGCACAUGAGGAUCACCCAUGUGAUGA [Teorgeor] (puzzle: Exclusion 4)
apparent KD of MS2 coat protein [3]: 36 nM

AUAUAGCGAGGAUAUACAUGAGGAUCACCCAUGUAGGUUCCGGGUUUUCCAGUAAAAUGUAGAAGGCGCAUGGA [EX3 B.5] (Eterna round: R97, puzzle: Exclusion 3)
apparent KD of MS2 coat protein (input ligand: FMN 200 uM): 99.4 nM
apparent KD of MS2 coat protein (input ligand: none): 44.6 nM

GAAUAGCGAGGAUAUGCAAUGAAGGUAGUACGAUAUGGCUGACAUGAGGAUCACCCAUGUAGAAGGCGCUGAUC [EX2 #11] (Eterna round: R97, puzzle: Exclusion 2)
apparent KD of MS2 coat protein (input ligand: FMN 200 uM): 116 nM
apparent KD of MS2 coat protein (input ligand: none): 65.8 nM

UUCCUCGUUGUGAGGAUAUCGUCCGUGUUUUGUUACGAGAAGGCACAUGAGGAUCACCCAUGUUACUUGAUGUU [JR_BMOE4_Sub073] (puzzle: Brourd's mod of Exclusion 4)
apparent KD of MS2 coat protein [3]: 18.9 nM

AUAAAUCAUGUAGGAUAUGCGUGGCGAAGCUAUGCAGAAGGACAUGAGGAUCACCCAUGUGCUUCCGUCUGCGUACAGACGGUA [Mat - Exclusion NG 1 - Mod of JL - D10] (Eterna round: R96, puzzle: Exclusion NG 1)
apparent KD of MS2 coat protein (input ligand: FMN 200 uM): 125 nM
apparent KD of MS2 coat protein [1]: 77.6 nM
apparent KD of MS2 coat protein (input ligand: none): 142 nM

UUGAAUUAUAAGGAUAUGGGAGUCGAUAGACACCCAGAAGGUAUAACAUGAGGAUCACCCAUGUGUCCUAUCAA [Mod of Eli 25 - Jieux - Exclusion 6] (Eterna round: R97, puzzle: Exclusion 6)
apparent KD of MS2 coat protein (input ligand: FMN 200 uM): 33.6 nM
apparent KD of MS2 coat protein (input ligand: none): 18.2 nM

AAACCCUGAGGAUAUACAUAACAACAAAUCCUCACGUGCCAACAUGAGGAUCACCCAUGUAGAAGGCAGGCCCA [Bigegedi] (puzzle: Exclusion 2)
apparent KD of MS2 coat protein [2]: 48.4 nM
apparent KD of MS2 coat protein [3]: 15.8 nM
apparent KD of MS2 coat protein [4]: 15.3 nM

AACCUGAGGCAAAGCUUUAGGUGUACAUGAGGAUCACCCAUGUAGGAUAUGGUAAGCAAAGCUUACCAGAAGGACAUAAUGAUA [Mat - Exclusion NG 3 - Mod of JL - D49] (Eterna round: R96, puzzle: Exclusion NG 3)
apparent KD of MS2 coat protein (input ligand: FMN 200 uM): 86.5 nM
apparent KD of MS2 coat protein [1]: 37.6 nM
apparent KD of MS2 coat protein (input ligand: none): 59.4 nM

AGAUGGCGAGGAUAUACAUGAGGAUCACCCAUGUGAAGAUAAAGAGUGAGGAAGAAAAGUAGAAGGCGCUGUCA [Mat - Exclusion 3 - Mod of Salish D28] (puzzle: Exclusion 3)
apparent KD of MS2 coat protein [2]: 351 nM
apparent KD of MS2 coat protein [3]: 106 nM
apparent KD of MS2 coat protein [4]: 123 nM

CAUUGUUACGGAGGAUAUCGUAUUGAGAUACUAUGAGAAGGCCGAAUAAACAUGAGGAUCACCCAUGUGAGACGGAUGCUUGUG [Ex NG1 #35] (Eterna round: R96, puzzle: Exclusion NG 1)
apparent KD of MS2 coat protein (input ligand: FMN 200 uM): 33.1 nM
apparent KD of MS2 coat protein [1]: 14.9 nM
apparent KD of MS2 coat protein (input ligand: none): 18.9 nM

ACUUAUUGAGGAUAUACAGAUUAUUACAUGAGGAUCACCCAUGUUCUUCAAUGUAUAUAUGUAGAAGGCAGAGGAA [JL-ex5-4.24 Malcolm mod] (Eterna round: R97, puzzle: Exclusion 5)
apparent KD of MS2 coat protein (input ligand: FMN 200 uM): 87.6 nM
apparent KD of MS2 coat protein (input ligand: none): 39.7 nM

AGUGAACAUGAGGAUCACCCAUGUUAGGAUAUGUAUAAUCGACGAGCCUUUUCGUCGGGCAGAAGGGAUGGUGA [Eternabot (L2) Solution 95] (Eterna round: R97, puzzle: Exclusion 1)
apparent KD of MS2 coat protein (input ligand: FMN 200 uM): 44.7 nM
apparent KD of MS2 coat protein (input ligand: none): 41.6 nM

AAACGCCGAGGAUAUACCCAACCAGUCCUCUAAAGAAGAAAACAUGAGGAUCACCCAUGUAGAAGGCGGUGCAA [Anorti] (Eterna round: R97, puzzle: Exclusion 2)
apparent KD of MS2 coat protein (input ligand: FMN 200 uM): 51.8 nM
apparent KD of MS2 coat protein (input ligand: none): 28.1 nM

AAUUAUUUUUGAGGAUAUCGUGGUGAAACACCACGAGAAGGCAAGAUACACAUGAGGAUCACCCAUGUGAGCCUGAUGCUUAUG [Ex NG1 #52] (Eterna round: R96, puzzle: Exclusion NG 1)
apparent KD of MS2 coat protein [1]: 13.2 nM

CUGAAUCGAGGAUAUUGUACUGCUGACAUGAGGAUCACCCAUGUAUGUUAACUCAGCCGUCGAGAAGGCGAACAUA [BotMod 33 - Jieux - Exclusion 5] (Eterna round: R97, puzzle: Exclusion 5)
apparent KD of MS2 coat protein (input ligand: FMN 200 uM): 12.8 nM
apparent KD of MS2 coat protein (input ligand: none): 19 nM

GUAAACGUAUAGGAUAUUUCAGGUCAAAGCUGCAAAGAAGGAUGCACAUGAGGAUCACCCAUGUGGUCAAUAAA [Mod of Quesina 24 - Jieux - Exclusion 6] (Eterna round: R97, puzzle: Exclusion 6)
apparent KD of MS2 coat protein (input ligand: FMN 200 uM): 25.7 nM
apparent KD of MS2 coat protein (input ligand: none): 22.2 nM

GUGCUAUAGGAAGGAUAUACUUCAUUAUUUAGACAUGAGGAUCACCCAUGUAACCUUAUGUAUGUGUAGAAGGUCCAUAGCUUA (Eterna round: R96, puzzle: Exclusion NG 2)
apparent KD of MS2 coat protein (input ligand: FMN 200 uM): 93.2 nM
apparent KD of MS2 coat protein [1]: 35.1 nM
apparent KD of MS2 coat protein (input ligand: none): 38.8 nM

UCCUCACAUGAGGAUCACCCAUGUCAGGAUAUAAGAAACGCGGCAGGCAGCCGCAAAAUUAGAAGGGACAUUAA [EX1 A.27] (Eterna round: R97, puzzle: Exclusion 1)
apparent KD of MS2 coat protein (input ligand: FMN 200 uM): 47.5 nM
apparent KD of MS2 coat protein (input ligand: none): 18.2 nM

ACACACAGAGGAUAUCUUCCGCAUGACAUGAGGAUCACCCAUGUGUGCAUGCCCAAAAGUAGAGAAGGCUGUGUGU [eternacac ex5r4 #3] (Eterna round: R97, puzzle: Exclusion 5)
apparent KD of MS2 coat protein (input ligand: FMN 200 uM): 27.1 nM
apparent KD of MS2 coat protein (input ligand: none): 35.6 nM

CGUUUGCAUUUUGCUCGUCACAUGAGGAUCACCCAUGUUAUGCUACAGUACGCUAGGAUCGGCGUCUGAGGGCUUUA [Eternabot (Original) Solution 1] (Eterna round: R97, puzzle: Sensor, turn-off variant 1)
apparent KD of MS2 coat protein (input ligand: FMN 200 uM): 25.2 nM
apparent KD of MS2 coat protein (input ligand: none): 27.7 nM

UGCGUUCAAGGAUAUACAUGAGGAUCACCCAUGUGGAUGGCCGUUGUGUGAACACUUAGUAGAAGGUGACACGG [Eternabot (L2) Solution 5] (Eterna round: R97, puzzle: Exclusion 3)
apparent KD of MS2 coat protein (input ligand: FMN 200 uM): 51.8 nM
apparent KD of MS2 coat protein (input ligand: none): 71.2 nM

UUAAAUCAUGUAGGAUAUGCGUGGAGAAACUAUGCAGAAGGACAUGAGGAUCACCCAUGUGCUUCCGUCUGCGUACAGAUGGUA [Mat - Exclusion NG 1 - Mod of JL - D8] (Eterna round: R96, puzzle: Exclusion NG 1)
apparent KD of MS2 coat protein [1]: 21.1 nM

UUUUAACAUGAGGAUCACCCAUGUGAGGAUAUCGAAAUUUAUAUUUAUAUUAAUAUUUCGAGAAGGCACAUUUU [JMF 81] (puzzle: Exclusion 1)
apparent KD of MS2 coat protein [3]: 176 nM

UGUACUAUGCGAGCUGACUUGCGUAGUGCAGCAGGUGUAACAUGAGGAUCACCCAUGUCCUCAUUUGCUCGUCUUAA [Mat - Sensor v3 - Turn-off var 2 - D10] (puzzle: Sensor v3, turn-off variant 2)
apparent KD of MS2 coat protein [2]: 458 nM
apparent KD of MS2 coat protein [3]: 196 nM
apparent KD of MS2 coat protein [4]: 388 nM

AAGUCUGGUGUAAGGAUAUUGUUAGACUUGGUGAGCAAGAAGGUACAUGAGGAUCACCCAUGUGGGAUACUAGC [Eternabot (Original) Solution 41] (Eterna round: R97, puzzle: Brourd's mod of Exclusion 4)
apparent KD of MS2 coat protein (input ligand: FMN 200 uM): 40.5 nM
apparent KD of MS2 coat protein (input ligand: none): 40 nM

GACUGAACGUGGUCUGGUUACAUGAGGAUCACCCAUGUAGGUCUAAGAACAUGUCUUUUGUACGCUCGUCUUAUAUA [JR_SV3TOV1_Sub066] (puzzle: Sensor v3, turn-off variant 1)
apparent KD of MS2 coat protein [2]: 16.7 nM
apparent KD of MS2 coat protein [3]: 38.1 nM
apparent KD of MS2 coat protein [4]: 15 nM
